In FireProtDB (doi:10.1021/bi001735j):
Where “and” joins values, the source holds several entries; their conditions need not be identical. Equal entries are not always repeated.

Conditions: Homo sapiens, pH 7, 25 °C, GdnHCl, CD, sodium cacodylate 50 mM, NaCl 50 mM, whole UniProt chain shown

B1: Alpha-lactalbumin wild type, P00709 (protein)
chain: MRFFVPLFLVGILFPAILAKQFTKCELSQLLKDIDGYGGIALPELICTMFHTSGYDTQAIVENNESTEYGLFQISNKLWCKSSQVPQSRNICDISCDKFLDDDITDDIMCAKKILDIKGIDYWLAHKALCTEKLEQWLCEKL
denaturant m value (transition: 3): 2.2 kcal/mol/M and 0.77 kcal/mol/M and 0.75 kcal/mol/M
denaturant m value: 2.9 kcal/mol/M and 2.4 kcal/mol/M and 4.4 kcal/mol/M
unfolding free energy: 28.9 kJ/mol and 30.1 kJ/mol and 57.7 kJ/mol
